The values below come from patent US12135332B2, “Mutant human estrogen receptor-α and methods of use thereof” (Case Western Reserve University, priority 2018, dated 2024).

This assay has as its target ERE-DNA. Description: Fluorescence anisotropy DNA-binding assay. The settings on record: 6-FAM-labeled ERE-DNA 20 nM, E2-bound hERα^CDE; read-out: DNA-binding affinity Kd. An excerpt: FIGS. 8(a)-(e) are graphs relating to the purification and characterization of recombinant hERα. […] FIGS. 8(b) and (c) show the purification of hERα^CDE, specifically size exclusion chromatography of hERα^CDE in the absence (b) or presence (c) of ERE-DNA. Shown are the absorbance at 260 nm and 280 nm of hERα^CDE in the presence of estradiol and a coactivator TIF2 peptide. […] Data of 2.8-μM hERα^CDE in the presence of E2 were used as a saturation level and free 20-nM DNA data as a baseline. […] The binding of the hERα to a coactivator TIF2 peptide (sequence […]) (SEQ ID NO: 2) in the presence of E2 and ERE-DNA was measured by surface plasmon resonance (SPR). […]
To further assess the impact of this substitution on the receptor's ability to bind ERE-DNA, a biochemical DNA-binding assay was performed by detecting fluorescence anisotropy of 6-carboxyfluorescein-labeled ERE-DNA in the presence of increasing concentrations of the E2-bound hERα^CDE. […]
The fluorescence-conjugated double-strand ERE-DNA was prepared by annealing 6-FAM (6-carboxyfluorescein) 5′-labeled strands (5′-[…]-3′ (SEQ ID NO: 44) and 5′-[…]-3′ (SEQ ID NO: 45); IDT, Inc) in a buffer containing 10 mM CHES (pH 9.5), 50 mM KCl, 50 mM NaCl, 4 mM MgCl2, 50 mM arginine, 50 mM glutamic acid, 5 mM TCEP, 5% glycerol with 10 μM ZnCl2, and 10 μM E2. […]

B1: WT: recombinant wild-type human ERα segment with DBD and LBD, residues E181-P552 (protein)
chain: ETRYCAVCNDYASGYHYGVWSCEGCKAFFKRSIQGHNDYMCPATNQCTIDKNRRKSCQACRLRKCYEVGMMKGGIRKDRRGGRMLKHKRQRDDGEGRGEVGSAGDMRAANLWPSPLMIKRSKKNSLALSLTADQMVSALLDAEPPILYSEYDPTRPFSEASMMGLLTNLADRELVHMINWAKRVPGFVDLTLHDQVHLLECAWLEILMIGLVWRSMEHPGKLLFAPNLLLDRNQGKCVEGMVEIFDMLLATSSRFRMMNLQGEEFVCLKSIILLNSGVYTFLSSTLKSLEEKDHIHRVLDKITDTLIHLMAKAGLTLQQQHQRLAQLLLILSHIRHMSNKGMEHLYSMKCKNVVPLYDLLLEMLDAHRLHAP
By Kd is commonly meant the free concentration of one partner at which half of the binding sites on the other are occupied at equilibrium, for simple one-to-one binding. B1: the Kd is 9.2 nM.
